This assay addresses T1, recombinant human αvβ8 protein (PARS-17102) (human).
T1 construct: also called hu.aVb8.17102; not shown: C-terminal acid/basic coils and any purification tags
T1 alpha: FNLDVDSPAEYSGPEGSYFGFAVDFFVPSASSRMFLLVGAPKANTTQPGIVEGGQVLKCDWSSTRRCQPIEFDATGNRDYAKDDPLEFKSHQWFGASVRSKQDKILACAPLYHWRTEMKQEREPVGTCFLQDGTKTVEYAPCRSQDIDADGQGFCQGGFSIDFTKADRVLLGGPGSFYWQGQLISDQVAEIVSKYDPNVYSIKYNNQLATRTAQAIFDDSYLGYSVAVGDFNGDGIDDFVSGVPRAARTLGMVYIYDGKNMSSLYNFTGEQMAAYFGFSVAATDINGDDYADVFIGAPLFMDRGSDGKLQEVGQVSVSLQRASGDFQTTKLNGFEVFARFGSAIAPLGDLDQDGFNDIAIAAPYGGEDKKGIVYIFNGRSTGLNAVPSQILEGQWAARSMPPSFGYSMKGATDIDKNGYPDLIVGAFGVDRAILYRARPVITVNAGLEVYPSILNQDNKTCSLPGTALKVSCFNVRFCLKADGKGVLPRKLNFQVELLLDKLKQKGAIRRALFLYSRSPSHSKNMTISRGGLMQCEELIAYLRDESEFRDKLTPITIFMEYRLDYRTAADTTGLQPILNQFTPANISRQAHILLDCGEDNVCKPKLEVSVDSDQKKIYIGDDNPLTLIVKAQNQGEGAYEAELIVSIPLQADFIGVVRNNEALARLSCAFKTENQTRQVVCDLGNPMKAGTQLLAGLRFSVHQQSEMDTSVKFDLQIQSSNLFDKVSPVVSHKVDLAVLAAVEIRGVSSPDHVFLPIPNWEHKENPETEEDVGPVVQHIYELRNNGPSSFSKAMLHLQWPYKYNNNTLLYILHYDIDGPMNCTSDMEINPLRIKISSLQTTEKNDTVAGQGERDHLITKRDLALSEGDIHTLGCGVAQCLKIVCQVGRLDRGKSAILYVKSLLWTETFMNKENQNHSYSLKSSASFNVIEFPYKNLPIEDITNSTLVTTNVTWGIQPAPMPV
T1 beta: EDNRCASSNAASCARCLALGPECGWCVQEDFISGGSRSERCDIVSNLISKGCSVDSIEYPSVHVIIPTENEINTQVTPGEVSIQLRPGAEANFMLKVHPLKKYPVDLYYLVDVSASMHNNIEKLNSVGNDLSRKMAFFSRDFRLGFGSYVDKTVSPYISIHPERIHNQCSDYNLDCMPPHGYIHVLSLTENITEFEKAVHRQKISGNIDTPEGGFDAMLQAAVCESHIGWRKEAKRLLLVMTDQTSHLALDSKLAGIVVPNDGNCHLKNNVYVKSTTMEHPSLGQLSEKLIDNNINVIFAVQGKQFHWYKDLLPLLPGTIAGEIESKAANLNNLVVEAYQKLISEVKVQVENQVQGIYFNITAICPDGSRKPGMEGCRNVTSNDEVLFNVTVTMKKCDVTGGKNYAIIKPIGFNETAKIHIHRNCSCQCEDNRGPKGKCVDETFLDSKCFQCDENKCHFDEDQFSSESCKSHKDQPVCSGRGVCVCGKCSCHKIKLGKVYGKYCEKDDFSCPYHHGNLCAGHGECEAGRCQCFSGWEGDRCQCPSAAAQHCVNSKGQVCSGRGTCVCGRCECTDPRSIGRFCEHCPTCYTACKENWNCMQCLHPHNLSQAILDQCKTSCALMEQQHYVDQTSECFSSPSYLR
The assay is described as follows: SPR, Biacore T200, antibody captured on Protein A chip, 3-fold analyte series 0-100 nM, 37 C, 1:1 model; average ± as printed. On the procedure: The ability of the anti-αVP8-65 to bind to different αVβ8 proteins was assessed using SPR measurements (Karlsson et al. 1991) on a Biacore™ T200 (Cytiva Life Sciences; Marlborough, MA) instrument (Safsten et al. 2006). anti-αV08-65 was first captured on a Biacore™ Protein A biosensor chip (Cytiva Life Sciences) to achieve approximately 60 response units. Binding measurements were performed using a running buffer composed of 10 mM HEPES (pH 7.4), 150 mM NaCl, 0.5 mM CaCl₂), 0.5 mM MgCl₂, and 0.005% Surfactant P20 (Cytiva Life Sciences). A 3-fold dilution series of the analyte proteins (range, 0-100 nM in running buffer) was injected into the Biacore™ T200. All injections were performed over 180 seconds, with a dissociation time of 1200 seconds, at a flow rate of 100 μL/minute and a temperature of 37° C. Between sample injections, 10 mM glycine (pH 1.5) was injected to regenerate the sensor chip (twice, over 30 seconds at 10 μL/minute for each injection). To determine the binding kinetics and affinity constants of anti-αVP8-65 to the various species of the αVβ8 protein, the signal from the reference flow cell (FC1, with only protein A on the surface) was “double referenced” by subtracting the signal observed after injecting the sample over FC1, followed by subtracting the signal observed after injecting only running buffer. The kinetic constants were calculated using non-linear regression fitting of the data, according to a 1:1 Langmuir binding model, using Biacore™ Evaluation Software (Cytiva Life Sciences) for anti-αVP8-65 binding to recombinant human, cynomolgus monkey, mouse, and rat αVβ8 proteins.

Among the data in patent publication US20240327522A1 (Genentech, published 2024) are Kd, koff and kon values, retold here.

B1: Hu.aVb8-65.H15L2 (aVb8-65.H15L2.hIgG1.LALAPG) (antibody, V domains shown)
VH: EVQLLESGGGLVQPGGSLRLSCAASGIDLSNYAMIWVRQAPGKGLEWVGIISSSDRIWYASWVKGRFTISRDNSKNTLYLQMNSLRAEDTAVYYCSRSVSNSYFDGWNLWGQGTLVTVSS
VL: DIQMTQSPSSVSASVGDRVTITCQASENINSLLAWYQQKPGKAPKLLIYRASTLASGVPSRFSGSGSGTDFTLTISSLQPEDFATYYCQSNYGFTGSGAFFYGFGQGTKVEIKR
notes: Human IgG1 LALAPG; also called PARS-20475-65 (IH) aVb8-65.H15L2.hIgG1.LALAPG; humanized αvβ8-65
What is called Kd is the free concentration of one partner at which half of the binding sites on the other are occupied at equilibrium, for simple one-to-one binding. Broadly, the koff is a measure of how fast the partners let go of each other. For orientation: kon means the second-order rate constant of association. For B1, the Kd was 0.5 nM, the koff is 8.8e-05 s⁻¹ and the kon came to 175000 M⁻¹ s⁻¹.
